Assay results as given in FireProtDB (doi:10.1074/jbc.m707838200).
Several values for one entry are separate records, joined by “and”; a condition that tells them apart may be missing. Identical values can stand only once.

B1: E114Q, Q9EYL5 (parent)
chain: MTKKLLTLFIVSMLILTACGKKESATTSSKNGKPLVVVYGDYKCPYCKELDEKVMPKLRKNYIDNHKVEYQFVNLAFLGKDSIVGSRASHAVLMYAPKSFLDFQKQLFAAQQDENKEWLTKELLDKHIKQLHLDKETENKIIKDYKTKDSKSWKAAEKDKKIAKDNHIKTTPTAFINGEKVEDPYDYESYEKLLKDKIK

Variants of: B1
Conditions: Staphylococcus aureus, pH 7, Thermal, CD, reversible: Yes, structure 3BCI, whole UniProt chain shown; for unfolding free energy: 25 °C, Hepes-NaOH 20 mM, NaCl 170 mM; for Tm / change of melting temperature, mutant - wild type (higher = more stable): Phosphate 100 mM

For MTKKLLTLFIVSMLILTACGKKESATTSSKNGKPLVVVYGDYKCPYCKELDEKVMPKLRKNYIDNHKVEYQFVNLAFLGKDSIVGSRASHAVLMYAPKSFLDFQKQLFAAQQDQNKEWLTKELLDKHIKQLHLDKETENKIIKDYKTKDSKSWKAAEKDKKIAKDNHIKTTPTAFINGEKVEDPYDYESYEKLLKDKIK [E114Q], the unfolding free energy was 6.13 kcal/mol, the Tm was 74.2 °C and the “change of melting temperature, mutant - wild type (higher = more stable)” value was 2.3 °C.

For MTKKLLTLFIVSMLILTACGKKESATTSSKNGKPLVVVYGDYKCPYCKELDEKVMPKLRKNYIDNHKVEYQFVNLAFLGKDSIVGSRASHAVLMYAPKSFLDFQKQLFAAQQDENKEWLTKELLDKHIKQLHLDKETENKIIKDYKTKDSKSWKAAEKDKKIAKDNHIKTVPTAFINGEKVEDPYDYESYEKLLKDKIK [T171V], the unfolding free energy was 8.19 kcal/mol and 8.42 kcal/mol, the Tm was 71.8 °C and 73 °C and the “change of melting temperature, mutant - wild type (higher = more stable)” value was -0.7 °C and 1.1 °C.
